Experimental data from the nanobody polyreactivity screen of Harvey et al. (2022).

Experiment: yeast display, Sf9 membrane polyspecificity reagent, FACS + sequencing; frameworks hold sequencing errors
Outline: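 A nanobody's polyreactivity label depends on the gate it was sorted from. Yeast display cells were stained with 10% biotinylated, detergent-solubilized Sf9 membrane reagent for 1 hour at 4 °C, enriched on streptavidin microbeads and sorted by FACS. The low and high (top ~1%) gates were set on anti-HA fluorescence for expression and streptavidin fluorescence for reagent binding.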

Sequence | polyreactivity (PSR sort gate)
QVQLVESGGGLVQAGGSLRLSCASSGYIIIIYAMGWYRQAPGKERELVAAINRRGGSTYYADSVKGRFTISRDNAKNTVYLQMNSLKREDTEVYYCNAYPYFSRGPHLYDYWGQGTQVTGSS | high polyreactivity
QVQLVESGGGLVQAGGSLRLSCAASGGTFAGYAMGWYRQAPGKERELVAAISWSSGRTYYADSVKGRFTISRDIAKNSVYLQMNSLKPEETAVYDCTVLRYRGYDYWGQGTQVTVSS | high polyreactivity
QVQHVESGGGLVQAGGRLRLSCAASGSTFQLYAMGWYRQAPGKERELVASISWSGGSTYYADSVTGRFTISRDNAKNTVYLQMNSLKPEDTAVYYCNADFWWRYRPGAVFRSYGYWGQGTQVTVSS | low polyreactivity
QVQLVESGGGLVQAGGSLRLSCAASGSIFYSYAMGWYRQAPGKERELVAVITRGGSTNYADSVKGRFTISRDNAKNTVYLQLNSLKPEDTAVYYCNKDRYGKVFRYPPYYRSSPYDYWGQGTQVTVSS | high polyreactivity
QGQLVESGGGLVQAGGSLRLSCAASGSIFVINAMGWYRQAPGKERELVAAIDWGGDTTYYADSVKGRFTISRDNAKNTVYLQMNSLKPEDSAVYYCAAGYYLRRYYYWGQGTQVTVSS | high polyreactivity
QVQLVESGGGLVQAGGSLRLSCAASGFTFRYYAMVWYRQAPGKERELVAAISYSGGSTYYADSVKGRFTISRDNAKNTVYLQMNCLKPEDTAVYYCAAYYPYSREMGYWGQGTQVTVSS | high polyreactivity
QVQLLESGGGLVQAGGSLRISCAASGFIFDYYMGWYRQAPGKERELVARISYTGGSTYYADSVKGRFTISRDNAKNTVYLQMNSLKPEDTAVYYCATRGAEAERFASYEFDYWGQGTQVTVSS | low polyreactivity
QVQLVESGGGIVQAGGSLRLSCAASGITFFYYAMGWYRQAPGKERELVASISSGGSTYYADSVKGRFTISRDNAKNTVYLQMNSLKPEDTAVYYCAAPTGWYPAYGEYEYWGQGTQVTVSS | low polyreactivity
QVQLVESGGVLVQAGGSLRLSCAASGRTMDPYTMGGYRQAHGKERELVAAITSSGGRTTYADSVKGRFTISRDNAKNYVYLQMNSLKPEDTAVYYCAKKFRPGYRSQYLRYSWGQGTQVTVSS | low polyreactivity
QVQLVESGGGLVQAGGSLRLSCAASGSIFYVKTMGWSRQAPGKEREFLAAINYSGDSTYADSVKGRFTISRDNAKNTVYLQMIRLKPEDTAVYYCNAVPVRYLRGRNGHDYWGQGTQVTVSS | high polyreactivity
QVQLVESGGGLVQAGGSLRLSCAASGRIGRNAMGWYRQAPVKERELVATISWSAGRTFYADSVKGRFTISRDNAKNTVYLQMNSLKPEDTAVYYCAAGGWQRGYYWGQGTQVTVSS | high polyreactivity
QVQLVESGGGLVQAGGSLRLSCAASGRTFPYYAMGWYRQAPGKERELVAAITGSGGRTYYADSVKGRFTISRDNAKNTVYLQMNRLKPEDTAVYYCATDRGYYTWRYGRNDYWGQGTLVTVSS | high polyreactivity
QVQLVESGGGLVQAGGSLRLSCAASGRTFDWYVMGWYRQAPGKERELVASIRGTGSTYYADSVKGRFTISRDNAKNTVYLQMNSLKPEDTAVYYCAARPGYLYSKYNYWGQGTQVTVSS | high polyreactivity
QVQLVESGGGLVQAGGSLRLSCAASGIIFAVYAMGWYRQAPGKERELVAAISTSGGRTYYADSVKGRFTISRDNAKNTVYLQMNSLKPEDTAVYYCAAEYVGKGTPDDYDYWGQGTQVTVSS | high polyreactivity
QVQLVESGGGLVQAGGSLRLSCAASGSILIWNTMGWDRQAPGKDRELVAAISSGGSTYYADSVKGRFTISRDNAKNTVYLQMNSLKPEDTAVYYCNVDLPRVLTDDSWGQGTHVTVSS | low polyreactivity
QVQLVESGGGLVQAGGSLRLSCAASGNGLGWYRQAPGKERELVAAITRRGGSTYYADSVKGRFTISRDNAKNTVYLQMNSLKPEDTAVYYCAADNPSYNLWYGYWGQGTQVTVSS | low polyreactivity
QVQLVESGGGLVQAGGSLRLSCAASGSIFYYYAMGWYRQAPGKERELVASITSGARTNYADSVKGRFTISRDNAKNTVYLQMNILKPEDTAVFYCAADIKWSIRRAYDYWGQGTQVTVSS | high polyreactivity
QVQHVESGGALVQAGGSLRLSCAASGLIYALSAMGWDRQAPGKEMELVAAIDWSGGSTYYADSVKGRFTISRDNAKNTVYVQMNCLKPEDTAVYYCAADISSSPGNDYWGQGTQLTVSS | high polyreactivity
QVQLVESGGGLVQAGGSLRLSCAASGFIFSFNAMGWYRQAPGKERELVAAISRRGGRTYYADSVKGRFTISRDNAKNTVYLQMNSLKPEDTAVYYCAAQGRDSTPHGYWGQGTQVTVSS | high polyreactivity
QVQLVESGGGLVQAGGSLRLSCAASGFIFYNYAMGWYRQAPGKERELVAAISASGGRTYYADSVKGRFTISRDNAKNTVYLQMHRLKPEDTAVYYCIARVKYKGYDYWGQGTQVTVSS | high polyreactivity
QVQLVESGGGLVQAGGSLRLSCAASGRIFYFYVMGWYRQAPGKEREFVAAISQSGGSTYYADSVKGRFTISRDNAKNTVYLQMNSLKPEDTAVYYCAADLKAWGRYYYWGQGTQVTVSS | low polyreactivity
QVQLVESVGGLVQAGGSLRLSCAASGSTFYANAMGWYRQAPGKERELVAAITWGDASTYYADSVKGRFTISRDNAKNTVYLQMNSLKPEDTAVYYCAVDESYGSSSDMDYWGQGTQVTVSS | low polyreactivity

Sequence | polyreactivity (PSR sort gate)
QVQLVESGGGLVQAGGSLRLSCAASGSTFQPNAMGWYRQAPGKERELVAISSGDDTYYADSVKGRFTISRDKAKNTVYFQMNSLIPEDSAVYYCAAEYSFIYYWGQGTQVTVSS | low polyreactivity
QVQLVESGGGLVQAGGSLRLSCAASGFIFGHYAMGWYRQAPGKERELVATISSGGSTKYADSVKGRFTISRDNAKNTVYLQMNSLKPEDTAVYYCAKKLWYLYHHYDYWGQGTQVTVSS | low polyreactivity
QVQLVESGGGLVQAGGSLRLSCAASGFIFSHYAMGWYRQAPGKERELVAAISRNGGSTYYADSVKGRFTISRDNAKNTVYLQMNSLKPEDTAVYYCAVDVSEWYHYDLYYWYYYWGQGTQVTVSS | high polyreactivity
QVQLVESGGGLVQAGGSLRLSCAASGRIIPYYAMGWYRQAPGKERELVAAISSSGGRTYYADSVKGRFTISRDNAKNTVYLQMNSLKPEDTAVYYCAAGFPTFGWDKVRFIMYYWGQGTQVTVSS | high polyreactivity
QVQLQESGGGMVQAGGSLRLSSAASGYISWADYMGWYRQAPGKERELVAGIGYGSTTYYADSVKGRFTISRDNAKNTAYLQMNSLKPEDTAVYYCAVGCYRDTAYKYWGQGTQVTVSS | low polyreactivity
QDQLVESGGGLVQAGGSLRLSCAASGSISSTNAMGWYRQAPGKERELVATISWIGGSTYADSVKGRFTISRDNAKNTVYLQMNSLKPEDTAVYYCNRDWIFTKDYDYWGQGTQVTVSS | low polyreactivity
QVQLLESGGGLVQAGGTLRLSCAASGYTFAWYAMVWSRQAPGKERELVAAINNGGSTSYADSVKGRFTISRDNAKNTVYLQMNSLKREDTAVYYCAARPGAHPDRLDYWGQGTQVTVSS | low polyreactivity
QDQHVESGGGLVQAGGSLRLRCSASVRTYFDYDMGRYRQAPGKERELVAAISQSGGSTYYADSVKGRFTISRDNAKYTFYLVMNSLKPEDTGVYECNAYYGYGHRIYDYWGQGTQVTVSS | high polyreactivity
QVQLVESGGGLVQAGGSLRLSCAASGSTFSSNAMGWYRQAPGKERELVAAIDRGGSTYYADSVKGRFTISRDNAKNTVYLQMNSLKPEDTAVYYCAKGFDFRRRYDYWGQGTQVTVSS | low polyreactivity
QVQLVESGGGLVQAGGSLRLSCAASGFIFRQYAMGWYRQAPGKERELVAAISRSGGSTYYADSVKGRFTISRDNAKNTVYLQMNSLKPEDTAVYYCAVRYNQWYLNFGRYDYWGQGTQVTVSS | high polyreactivity
QVHLVESGGGLVQAGRSLRLSCAASGRTSAYYAMGWYRQAPGKERELDAGITRGGRTNYADSVKGRFTISRDNAKNTVYLQMNSLKPEDTAVYYCAAKYGYYWNSRTSGYWGQGTQVTVSS | high polyreactivity
QVQLVESGGGLVQAGGSLRLTCAASGIIFYGYAIGWYRQAPGKERQLVAAISSGGGTNYADSVKGRFTISRDNAKNTVYLQMNSLKPEDTAVYYCAARQYRRVKQGNYWGQGTQVTLSS | high polyreactivity
QVQLVESGGGLVQAGGSLRLSCAASGRIFRYNAMGWYRQAPGKERELVASINQRGGYTYYADSVKGRFTISRDNAKNTVYLQMNSLKPEDTAVYYCAADRPRGRETVYYWGQGTQVTVSS | high polyreactivity
QVQLVESCGGLVQPGGSLRLSCAASGSTFTRYGFGWYRQATGKEREMVAAITTSGSSTYYADSVKGRFTISRDNAKYTVYLQMNSLKPEETAVYYGAADWSSWGFDYWGQGTQVTVSS | low polyreactivity
QVQLVESGGGLVQAGGSLRLSCAASGFTFLYYTMGWYRQAPGKERELVAAISSGGRTTYADSVKGRFTISRDNAKNTVYLQMNSLKQEDTAVYYCAARYRTLDGEVDYWGQGTQVTVSS | high polyreactivity
QVQLVESGGGLVQAGGSLRLSCAASGSTFTRNAMGWYRQAPGKERELVATISRSGGSTYYADSVKGRFTISRDNAKNTVYLQMNSLKPEDTAVYYCARPYQYYKFYSHDYWGQGTQVTVSS | high polyreactivity
QVQLVESGGGLVQAGGSLRLSCAASGFTFARYAMGWYRQAPGKERELVAAISWSGARTYYADSVKGRFTISRDNAKNTVYLQMNSLKPEDTAVYYCNAVSGSSNFDYWGQGTQVTVSS | high polyreactivity
QVQLVESGGGLVQAGGSLRLSCAASGYIFIDYAMGWYRQAPGKERELVAAIRWSDSTYYADSVKGRFTISRDNAKNTVYLEMNSLKPEDTAVYYCAAEDSIRWVRRSRWYYYWGQGTQVTVSS | low polyreactivity
QVQLVESGGGLVQEGGSLRLSCAASGSTISSYAMGWYRQAPGKERELVAAITSGGSTYYADSVKGRFTFSRDNAKNTVYLQMNSLKPDDTAVYYCDLGSTTMDYWGQGTQVTVSS | low polyreactivity
QVQLVESGGGLVQAGGSLRLSCAASGRTIVVYGMGWYRQAPGKERELVATINYGGNTYYADSVKGRFTISRDNAKNTVYLQLNSLKPEDTAVYYCATRSYARYYTYDYWGQGTQVTVSS | low polyreactivity
QVQLVESGGGLVQAGGSLRLSCAASGRIFGTNAMGWYRQAPGKERELVAAITWNADDTYYADSVKGRFTISRDNAKNTVYLQMNSLKPEDTAVYYCAADSYEGYYYWGQGTQVTVSS | low polyreactivity
